Reference: patent US20260240958

Tested on: LTRP5-ADD-ZIM3 (dCasX491 fused to DNMT3A ADD/CD, DNMT3L, ZIM3-KRAB) (synthetic construct)
Assay: cell_activity
Settings: HEK293T day 8; non-targeting control

Sequence of LTRP5-ADD-ZIM3 (dCasX491 fused to DNMT3A ADD/CD, DNMT3L, ZIM3-KRAB) (synthetic construct) (chain, as listed by the source): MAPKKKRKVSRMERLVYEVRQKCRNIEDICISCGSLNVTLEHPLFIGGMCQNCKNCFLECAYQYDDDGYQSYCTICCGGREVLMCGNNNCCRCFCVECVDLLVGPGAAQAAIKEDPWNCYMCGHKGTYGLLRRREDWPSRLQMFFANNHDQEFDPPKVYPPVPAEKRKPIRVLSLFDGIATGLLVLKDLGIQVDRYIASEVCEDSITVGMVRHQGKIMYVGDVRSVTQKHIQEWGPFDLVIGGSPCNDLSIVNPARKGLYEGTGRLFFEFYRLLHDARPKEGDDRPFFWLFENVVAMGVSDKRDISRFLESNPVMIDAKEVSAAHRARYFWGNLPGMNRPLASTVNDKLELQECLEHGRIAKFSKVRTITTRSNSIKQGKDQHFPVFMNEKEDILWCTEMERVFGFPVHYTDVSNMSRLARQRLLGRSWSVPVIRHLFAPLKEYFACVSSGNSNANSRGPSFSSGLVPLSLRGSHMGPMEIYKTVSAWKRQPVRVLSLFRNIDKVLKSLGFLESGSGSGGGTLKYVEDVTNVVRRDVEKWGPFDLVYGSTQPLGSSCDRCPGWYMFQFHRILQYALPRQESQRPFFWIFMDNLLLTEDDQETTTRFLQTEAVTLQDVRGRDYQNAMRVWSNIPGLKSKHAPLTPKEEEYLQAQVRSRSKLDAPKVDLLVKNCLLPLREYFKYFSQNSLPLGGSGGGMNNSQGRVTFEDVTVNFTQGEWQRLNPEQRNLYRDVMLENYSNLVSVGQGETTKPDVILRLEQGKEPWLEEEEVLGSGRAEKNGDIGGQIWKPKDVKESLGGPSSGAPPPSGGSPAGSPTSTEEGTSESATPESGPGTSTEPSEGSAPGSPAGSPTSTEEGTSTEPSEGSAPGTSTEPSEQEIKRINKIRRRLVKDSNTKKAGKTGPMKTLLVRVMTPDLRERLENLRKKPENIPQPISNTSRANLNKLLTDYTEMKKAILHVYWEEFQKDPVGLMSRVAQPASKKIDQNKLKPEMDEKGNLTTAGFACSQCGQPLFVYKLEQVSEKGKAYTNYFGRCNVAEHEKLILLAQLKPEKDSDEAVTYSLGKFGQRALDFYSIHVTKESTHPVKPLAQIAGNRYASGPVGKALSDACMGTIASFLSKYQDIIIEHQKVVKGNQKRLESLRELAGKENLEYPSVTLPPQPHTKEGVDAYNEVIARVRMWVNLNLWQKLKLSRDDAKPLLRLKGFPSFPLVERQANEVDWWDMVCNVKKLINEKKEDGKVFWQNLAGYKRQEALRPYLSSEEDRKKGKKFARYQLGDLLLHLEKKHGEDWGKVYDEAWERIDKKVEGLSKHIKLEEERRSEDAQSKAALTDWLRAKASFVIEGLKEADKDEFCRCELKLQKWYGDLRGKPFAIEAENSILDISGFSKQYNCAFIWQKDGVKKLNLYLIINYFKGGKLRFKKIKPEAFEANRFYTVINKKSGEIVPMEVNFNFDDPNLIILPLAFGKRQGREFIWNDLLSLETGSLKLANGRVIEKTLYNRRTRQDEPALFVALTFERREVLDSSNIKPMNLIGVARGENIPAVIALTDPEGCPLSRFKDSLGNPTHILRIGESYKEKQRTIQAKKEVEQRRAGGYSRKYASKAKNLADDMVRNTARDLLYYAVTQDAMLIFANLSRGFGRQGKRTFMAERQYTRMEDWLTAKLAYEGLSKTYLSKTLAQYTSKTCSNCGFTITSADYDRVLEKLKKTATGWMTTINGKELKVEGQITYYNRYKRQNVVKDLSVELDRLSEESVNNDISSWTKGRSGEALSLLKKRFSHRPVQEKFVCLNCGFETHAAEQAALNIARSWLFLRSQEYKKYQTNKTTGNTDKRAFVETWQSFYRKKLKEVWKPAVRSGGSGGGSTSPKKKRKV

Substance: non-targeting spacer gRNA ; human B2M locus
- activity (% HLA-negative cells): 8.44
